Patent US20190112393 (published 2019)
Each block holds one binder with its values, some of them ahead of it.

What was measured:
human IgE [1] = target: human IgE (human); assay: SPR, pH 5.8, 1.2 mM Ca, 37C
human IgE [2] = target: human IgE (human); assay: SPR, pH 5.8, 3 uM Ca, 37C
human IgE [3] = target: human IgE (human); assay: SPR, pH 7.4, 1.2 mM Ca, 37C
human IgA [4] = target: human IgA (human); assay: SPR, pH 5.8, 1.2 mM Ca, 37C
human IgA [5] = target: human IgA (human); assay: SPR, pH 5.8, 3 uM Ca, 37C
human IgA [6] = target: human IgA (human); assay: SPR, pH 7.4, 1.2 mM Ca, 37C
human IgA [7] = target: human IgA (human); assay: SPR, pH 7.4, 3 uM Ca, 37C
human FcγRIa = target: T1, human FcγRIa (human, UniProt P12314); assay: SPR
T1 chain: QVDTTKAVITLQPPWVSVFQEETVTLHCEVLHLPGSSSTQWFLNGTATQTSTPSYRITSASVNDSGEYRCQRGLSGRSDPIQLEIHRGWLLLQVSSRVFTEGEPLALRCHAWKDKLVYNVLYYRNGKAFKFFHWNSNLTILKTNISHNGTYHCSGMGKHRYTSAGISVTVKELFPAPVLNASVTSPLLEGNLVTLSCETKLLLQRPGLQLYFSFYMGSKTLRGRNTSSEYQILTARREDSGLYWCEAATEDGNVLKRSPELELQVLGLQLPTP

Sequence of human IgA (human) (VH, as listed by the source): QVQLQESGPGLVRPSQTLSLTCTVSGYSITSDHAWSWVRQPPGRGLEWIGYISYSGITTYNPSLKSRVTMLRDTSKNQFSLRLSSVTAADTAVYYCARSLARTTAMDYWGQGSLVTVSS

Kd (human IgE [1]): 2000 nM
Kd (human IgE [2]): 3.9 µM
Kd (human IgE [3]): 2.4 nM
B1: 278-IgG1 (clone 278) (antibody, V domains shown)
VH: QSLEESGGRLVTPGTPLTLTCTASGFSLSSYHMSWVRQAPGKGLEWIGVINSAGNTYYASWAKGRFTVSKTSTTVDLNLTSLTTEDTATYFCARYVFSSGSHDIWGPGTLVTVSS
VL: AYDMTQTPASVEVAVGGTVTIKCQASQSIGSWLAWYQQKPGQPPKELIYGTSTLESGVPSRFIGSGSGTEFTLTISGVECADAATYYCQQGYSEDNIDNAFGGGTEVVVKR

Kd (human IgA [4]): 4 µM
Kd (human IgA [5]): 5 µM
Kd (human IgA [6]): 39 nM
Kd (human IgA [7]): 6.7 µM
B2: GA2-IgG1 (antibody, V domains shown)
VH: QVQLVQSGAEVKKPGSSVKVSCKASGGTFSSYAISWVRQAPGQGLEWMGGIIPIFGTANYAQKFQGRVTITADESTSTAYMELSSLRSEDTAVYYCARPRWETAISSDAFDIWGQGTMVTVSS
VL: DIQMTQSPSSLSASVGDRVTITCRASQSISDDLNWYQQKPGKAPKLLIYEASNLQSGVPSRFSGSGSGTDFTLTISSLQPEDFATYYCQQHSSSPLTFGQGTKVEIKR

Kd (human FcγRIa): 4 nM
B3: BP267 (antibody)
chain 1: QVQLQESGPGLVKPSETLSLTCAVSGHSISHDHAWSWVRQPPGEGLEWIGFISYSGITNYNPSLQGRVTISRDNSKNTLYLQMNSLRAEDTAVYYCARSLARTTAMDYWGEGTLVTVSSASTKGPSVFPLAPSSKSTSGGTAALGCLVKDYFPEPVTVSWNSGALTSGVHTFPAVLQSSGLYSLSSVVTVPSSSLGTQTYICNVNHKPSNTKVDKKVEPKSCDKTHTCPPCPAPDLLGDDSVFLFPPKPKDTLMISRTPEVTCVVVDVSEEDGEVKFNWYVDGVEVHNAKTKPREEQYNSTYRVVSVLTVLHQDWLNGKEYKCKVSNKALPAPIEKTISKAKGQPREPQVYTLPPSRDELTKNQVSLTCLVKGFYPSDIAVEWESNGQPENNYKTTPPVLDSDGSFFLYSKLTVDKSRWQQGNVFSCSVMHEALHNHYTQESLSLSP
chain 2: not shown
